The values that follow come from publication PMC10662374, “Structures of the interleukin 11 signalling complex reveal gp130 dynamics and the inhibitory mechanism of a cytokine variant” (Nature Communications, 2023).

As a reminder, the Kd is the free concentration of one partner at which half of the binding sites on the other are occupied at equilibrium, for simple one-to-one binding. Read a low Kd as tighter binding.

Numbering of substitutions follows the chain as printed.

To fix the notation:
T1: IL-11_(Δ10/Mutein)/IL-11Rα_(D1-D3) binary complex (human, UniProt P20809 32-199; Q14626 23-319, W147A | ^58AMSAG^62 to ^58PAIDY^62)
T1 construct: IL-11, human, IL-11Δ10 with W147A and 58-62 AMSAG to PAIDY, as m4; numbers count on: the mature protein; IL-11Rα, human, D1-D3, as m8; m4 with m8; source: formed from the purified proteins; in ITC by titrating the cytokine into IL-11Rα; not shown: His6, N-terminal, cleaved; His8, N-terminal, cleaved
T1 sequence 1: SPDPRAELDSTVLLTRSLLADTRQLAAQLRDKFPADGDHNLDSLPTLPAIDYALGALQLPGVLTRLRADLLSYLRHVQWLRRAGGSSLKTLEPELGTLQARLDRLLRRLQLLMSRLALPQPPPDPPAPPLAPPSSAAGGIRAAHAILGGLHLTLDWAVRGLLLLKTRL
T1 sequence 2: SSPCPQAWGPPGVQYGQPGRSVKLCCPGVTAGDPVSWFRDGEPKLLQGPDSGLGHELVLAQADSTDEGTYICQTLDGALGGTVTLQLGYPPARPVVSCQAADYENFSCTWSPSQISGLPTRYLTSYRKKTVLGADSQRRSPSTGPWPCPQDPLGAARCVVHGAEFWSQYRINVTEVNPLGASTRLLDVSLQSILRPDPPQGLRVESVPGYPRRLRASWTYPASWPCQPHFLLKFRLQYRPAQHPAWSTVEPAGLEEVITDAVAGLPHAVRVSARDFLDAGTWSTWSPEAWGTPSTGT

T2: gp130EC (human, UniProt P40189 23-619, N-linked glycans (N21, N61, N135 seen in the structures))
T2 construct: Secreted with a honeybee-melittin signal peptide; D5-D6 are not in the deposited model 8DPT; also called complete extracellular domains of gp130; D1-D6 domains of gp130; not shown: His8, N-terminal, cleaved
T2 sequence (looked up): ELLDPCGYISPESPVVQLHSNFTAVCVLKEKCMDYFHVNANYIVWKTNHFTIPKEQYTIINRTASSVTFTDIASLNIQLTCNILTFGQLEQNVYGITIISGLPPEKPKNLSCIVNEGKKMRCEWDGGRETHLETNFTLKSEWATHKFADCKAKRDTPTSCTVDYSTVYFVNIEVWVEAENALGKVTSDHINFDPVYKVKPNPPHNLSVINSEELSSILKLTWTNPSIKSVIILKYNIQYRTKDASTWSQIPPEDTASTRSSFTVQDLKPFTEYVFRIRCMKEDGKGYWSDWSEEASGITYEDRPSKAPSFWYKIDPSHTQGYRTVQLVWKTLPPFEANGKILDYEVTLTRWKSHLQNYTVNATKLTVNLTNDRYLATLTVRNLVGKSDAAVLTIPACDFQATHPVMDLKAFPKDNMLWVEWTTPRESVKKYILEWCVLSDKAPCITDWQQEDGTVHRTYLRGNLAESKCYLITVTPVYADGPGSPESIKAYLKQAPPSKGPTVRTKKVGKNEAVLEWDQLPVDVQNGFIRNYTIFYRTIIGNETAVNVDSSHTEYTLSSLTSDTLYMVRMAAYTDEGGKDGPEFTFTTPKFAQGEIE

B1: gp130_(D1-D3) (receptor, human)
chain: GELLDPCGYISPESPVVQLHSNFTAVCVLKEKCMDYFHVNANYIVWKTNHFTIPKEQYTIINRTASSVTFTDIASLNIQLTCNILTFGQLEQNVYGITIISGLPPEKPKNLSCIVNEGKKMRCEWDGGRETHLETNFTLKSEWATHKFADCKAKRDTPTSCTVDYSTVYFVNIEVWVEAENALGKVTSDHINFDPVYKVKPNPPHNLSVINSEELSSILKLTWTNPSIKSVIILKYNIQYRTKDASTWSQIPPEDTASTRSSFTVQDLKPFTEYVFRIRCMKEDGKGYWSDWSEEASGITYEDR
modifications: N-linked glycans (N21, N61, N135 seen in the structures)
notes: glycoprotein 130 (gp130), human, domains D1-D3; Secreted with a honeybee-melittin signal peptide; not shown: His8, N-terminal, cleaved
B2: IL-11Δ10/IL-11Rα_(D1-D3) binary complex (complex, human)
chain 1: T1 sequence 1 with P48A, A49M, I50S, D51A, Y52G, A137W
chain 2: T1 sequence 2
notes: IL-11, human, IL-11Δ10, as m1; numbers count on: the mature protein; IL-11Rα, human, D1-D3, as m8; m1 with m8; also called IL-11Rα_(D1-D3)/IL-11Δ10 binary complex; binary IL-11/IL-11Rα complex; source: formed from the purified proteins (IL-11Δ10 from E. coli, IL-11Rα_(D1-D3) from Sf21); in ITC by titrating the cytokine into IL-11Rα; not shown: His6, N-terminal, cleaved; His8, N-terminal, cleaved; …
B3: IL-11Δ10 (ligand, human)
chain: T1 sequence 1 with P48A, A49M, I50S, D51A, Y52G, A137W
notes: numbers count on: the mature protein; also called N-terminally truncated form of IL-11; WT IL-11Δ10; not shown: His6, N-terminal, cleaved

The target of assay [1] is IL-11_(Δ10/PAIDY)/IL-11Rα_(D1-D3) binary complex (human) (UniProt P20809). The assay can be described thus: ITC; gp130 in the syringe titrated against the cytokine/IL-11Rα_(D1-D3) complex formed in the cell, 288 K, TBS pH 8.5, 1:1 interaction model, n = 3. On the technique in general: ITC needs no label: the signal is the heat of the interaction.
Assay [2] has as its target T1, IL-11_(Δ10/Mutein)/IL-11Rα_(D1-D3) …. Described as above. To be noted: both partners purified.
In assay [3] the target is B2. The assay is described as above. To be noted: both partners purified.
Assay [4] deals with T2, gp130EC. The description is as above. To be noted: both partners purified.
Assay [5] concerns the target T2, gp130EC. The assay can be described thus: cryo-EM structure; IL-11Δ10/IL-11Rα_(D1-D3)/gp130EC complex, 1.5 mg/mL, with 1–2 mM n-dodecyl β-D-maltoside, not size exclusion purified; C2 symmetry, 3.8 Å. The note with it: both partners purified.

B1: the Kd in assay [1] was 20 nM; in assay [2], 55 nM; in assay [3] it was 3 nM. In assay [3], this molecule came in with a dH of -34 kJ/mol.
With B2, binding with gp130EC [4] was characterised by a dissociation constant (Kd) of 4 nM.
Turning to B3, the binding result in the assay with gp130EC [5] is “binds”.
